This assay addresses T1, human FLT3 (human, UniProt P36888 27-993).
T1 construct: On transfected CHO cells, or on the FLT3 positive human AML cell lines EOL-1 / MV4-11 where the row says so; also called hu FLT3; full length human FLT3
Kind of assay: FACS, scFv on CHO-human FLT3 pre-incubated with FLT3 ligand (competitor). (In general: A flow cytometer gives signals particle by particle.)

Changes are numbered by the printed parent chain. Bounds are passed on as bounds.

Method: The detection was performed using mouse anti-FLAG+PE-conjugated goat anti-mouse and the Fluorescence median detected by FACS (median (+ligand)/median (w/o ligand)*100%)
Afterwards cells were not washed but directly stained with FLT3 binder (scFv's). […] As negative control, cells were incubated with an unspecific scFv instead of FLT3 scFv.
For the evaluation of the data, the fluorescence median was detected by FACS.

B1: FL-51 scFv (scFv)
scFv: QVTLKESGPTLVKPTETLTLTCTVSGFSLRNVRMGVSWIRQPPGKCLEWLAHISSNDEKSYSTSLRSRLTISTDTSKSQVVLTMTNMDPVDTATYYCARMPGDSNTWRGFFDYWGQGTLVTVSSGGGGSGGGGSGGGGSEIVMTQSPATLSVSPGERATLSCRTSQSVNNNLAWYQQKPGQAPRLLIYGASTRATGIPARFSGSGSGTEFTLTISSLQPEDFATYYCLQHNSYPLTFGCGTKVEIK
notes: periplasmic prep
Regarding B1, the “median [+ligand]/median [w/o ligand]*100” value is at least 75%.

B2: FL-58 scFv (scFv)
scFv: B1 scFv with C46A, C239G
notes: periplasmic prep
As for B2, the “median [+ligand]/median [w/o ligand]*100” value is at least 75%.

B3: FL-49 scFv (scFv)
scFv: QVTLKESGPTLVKPTETLTLTCTVSGFSLNNARMGVSWIRQPPGKCLEWLAHIFSNDEKSYSTSLKNRLTISKDSSKTQVVLTMTNVDPVDTATYYCARIVGYGTGWFGYFDYWGQGTQVTVSSGGGGSGGGGSGGGGSDIQMTQSPSSLSASVGDRVTITCRASQDIRTDLAWYQQKPGKAPKRLIYAASSLQSGVPSRFSGSGSGTEFTLTISSLQPEDFATYYCLQHNRYPLTFGCGTKVDIK
notes: periplasmic prep
As for B3, the “median [+ligand]/median [w/o ligand]*100” value is at least 75%.

B4: FL-47 scFv (scFv)
scFv: QVTLKESGPALVKPTQTLTLTCTFSGFSLSNARMGVSWIRQPPGKCLEWLAHIFSNDEKSYSTSLKSRLTISKDTSKSQVVLTMTDMDPEDTATYYCARIVGYGTGWYGFFDYWGQGILVTVSSGGGGSGGGGSGGGGSDIQMTQSPSSLSASVGDRVTITCRTSQGIRNDLGWYQQKPGKAPKRLIYAASSLQSGVPSRFSGSGSGTEFTLTISSLQPEDFATYYCLQHNSYPLTFGCGTKVEIK
notes: periplasmic prep
For the molecule B4, the “median [+ligand]/median [w/o ligand]*100” value was at least 75%.

B5: FL-5 scFv (scFv)
scFv: QVTLKESGPMLVKPTETLTLTCTFSGFSLRNARMGVSWIRQPPGKALEWLAHIFWNDEKSYSTSLKSRLTISKDTSKSQVVLTMTNMDPVDTATYYCARIPYYGSGSYNYGMDVWGQGTTVTVSSGGGGSGGGGSGGGGSDIQMTQSPSSLSASVGDRVTITCRASQGIRNDLGWYQQKPGKAPKRLIYAASSLQSGVPSRFSGSGSGTEFTLTISSLQPEDFATYYCLQHNTYPLTFGGGTKVDIK
notes: periplasmic prep
As to B5, the “median [+ligand]/median [w/o ligand]*100” value was at least 75%.

B6: FL-48 scFv (scFv)
scFv: B5 scFv with A46C, G240C
notes: periplasmic prep
For the molecule B6, the “median [+ligand]/median [w/o ligand]*100” value is at least 75%.

B7: FL-34 scFv (scFv)
scFv: B5 scFv with M10A, T233S, V244L, D245E
notes: periplasmic prep
Take B7: the “median [+ligand]/median [w/o ligand]*100” value is at least 75%.

B8: FL-9 scFv (scFv)
scFv: QVTLKESGPTLVKPTETLTLTCTVSGFSLSNARMGVSWIRQPPGKALEWLAHIFSNDEKSYSTSLKSRLTISKDTSKSQVVLTMTNMDPVDTATYYCARIPGYGGNFYYHYYGMDVWGQGTTVTVSSGGGGSGGGGSGGGGSDIQMTQSPSSLSASVGDRVTITCRASQGIRNDLAWYQQKPGKAPKRLIYAASTVQSGVPSRFSGSGSGTEFALTISSLQPEDFATYYCLQHNSFPWTFGQGTKVDIK
notes: periplasmic prep
Take B8: the “median [+ligand]/median [w/o ligand]*100” value is at least 75%.

B9: FL-21 scFv (scFv)
scFv: QVTLKESGPALVKPTETLTLTCTFSGFSLSNARMGVSWIRQPPGKALEWLAHIFSNDEKSYSTSLKSRLTISKDTSKSQVVLTMTNMDPVDTATYYCARIPGYGGNFYYHYYGMDVWGQGTTVTVSSGGGGSGGGGSGGGGSDIQMTQSPSSLSASVGDRVTITCRTSRGIRNDLGWYQQIPGRAPKRLIYAASTLQSGVPSRFSGSGSGTEFTLTISSLQPEDFATYYCLQHNNFPWTFGQGTKVEIK
notes: periplasmic prep
As for B9, the “median [+ligand]/median [w/o ligand]*100” value was at least 75%.

B10: FL-50 scFv (scFv)
scFv: B8 scFv with A46C, Q242C
notes: periplasmic prep
For B10, the “median [+ligand]/median [w/o ligand]*100” value is at least 75%.

B11: FL-46 scFv (scFv)
scFv: QVTLKESGPVLVKPTQTLTLTCTFSGFSLSNARMGVSWIRQPPGKCLEWLALIYWNDDKRYSPSLKSRLTITKDTSKNQVVLTMTNMDPVDTATYYCARMVGYGSGWYAYFDYWGQGTLVTVSSGGGGSGGGGSGGGGSDIQMTQSPSSLSASVGDRVTITCRASQGIRNDLGWYQQKPGKAPKRLIYAASSLQSGVPSRFSGSGSGTEFTLTISSLQPEDFATYYCLQHNSYPLTFGCGTKVEIK
notes: periplasmic prep
Regarding B11, the “median [+ligand]/median [w/o ligand]*100” value was at least 75%.

B12: FL-12 scFv (scFv)
scFv: QVTLKESGPALVKPTETLTLTCTVSGFSLSNARMGVSWIRQPPGKALEWLANIFSNDEKSYSTSLKSRLTISKGTSKSQVVLTMTNMDPEDTATYYCARIVGYGSGWYGYFDYWGQGTLVTVSSGGGGSGGGGSGGGGSDIQMTQSPSSLSASVGDRVTITCRASQGIRNDLGWYQQKPGKAPQRLIYAASSLQSGVPSRFSGSGSGTEFTLTISSLQPEDFATYYCLQHNSYPLTFGGGTKVEIK
notes: periplasmic prep
In the case of B12, the “median [+ligand]/median [w/o ligand]*100” value was at least 75%.

B13: FL-29 scFv (scFv)
scFv: B12 scFv with E16Q, V24F, N52H, S62R, G74D, E90V, G109A, Q184K
notes: periplasmic prep
Take B13: the “median [+ligand]/median [w/o ligand]*100” value is at least 75%.

B14: FL-16 scFv (scFv)
scFv: QVTLKESGPVLVKPTETLTLTCTVSGFSLRNARMAVSWIRQPPGKTLEWLAHIFSNDEKSYSTSLKSRLTISKDTSKSQVVLTMTNMDPVDTATYYCARIVGYGSGWYGYFDYWGQGTLVTVSSGGGGSGGGGSGGGGSDIQMTQSPSSVSASVGDRVTITCRASQDIRYDLAWYQQKPGKAPKRLIYAASSLQSGVPSRFSGSGSGTEFTLTISSLQPEDFATYYCLQHNFYPLTFGGGTKVEIK
notes: periplasmic prep
B14: the “median [+ligand]/median [w/o ligand]*100” value is at least 75%.

B15: FL-39 scFv (scFv)
scFv: QVTLKESGPTLVKPTETLTLTCTLSGFSLNNARMGVSWIRQPPGKCLEWLAHIFSNDEKSYSTSLKNRLTISKDSSKTQVVLTMTNVDPVDTATYYCARIVGYGSGWYGFFDYWGQGTLVTVSSGGGGSGGGGSGGGGSDIQMTQSPSSLSASVGDRVTITCRASQGIRNDLGWYQQKPGKAPKRLIYAASTLQSGVPSRFSGSGSGTEFTLTISSLQPEDFATYYCLQHNSYPLTFGCGTKVEIK
notes: periplasmic prep
With B15, the “median [+ligand]/median [w/o ligand]*100” value was at least 75%.

B16: FL-42 scFv (scFv)
scFv: B4 scFv with Q16E, F24L, S30N, G35A, D86N, T164A, G173A
notes: periplasmic prep
Regarding B16, the “median [+ligand]/median [w/o ligand]*100” value was at least 75%.

B17: FL-15 scFv (scFv)
scFv: B14 scFv with V10A, V24L, R30N, S78G, V150L, R169G, Y170N, A173G, F232S
notes: periplasmic prep
As to B17, the “median [+ligand]/median [w/o ligand]*100” value was at least 75%.

B18: FL-13 scFv (scFv)
scFv: B15 scFv with C46A, C239G
notes: periplasmic prep
Turning to B18, the “median [+ligand]/median [w/o ligand]*100” value is at least 75%.

B19: FL-45 scFv (scFv)
scFv: B4 scFv with S62R, D86N, E90V, T105S, G109A, F110Y, I118T, T164A
notes: periplasmic prep
Regarding B19, the “median [+ligand]/median [w/o ligand]*100” value is at least 75%.

B20: FL-32 scFv (scFv)
scFv: QVTLKESGPTLVKPTETLTLTCTVSGFSFRNARMGVSWIRQPPGKALEWLAHIFSNDEKSYSTSLKSRLTISKDTSKGQVVLTMTNMDPVDTATYYCARIVGYGSGWYGYFDYWGQGTLVTVSSGGGGSGGGGSGGGGSDIQMTQSPSSLSASVGDRVTITCRASQGIRNDLVWYQQKPGKAPKRLIYAASTLQSGVPSRFSGSGSGTEFILTISSLQPEDFATYFCLQHYSYPLTFGGGTKLEIK
notes: periplasmic prep
In the case of B20, the “median [+ligand]/median [w/o ligand]*100” value was at least 75%.

B21: FL-20 scFv (scFv)
scFv: B4 scFv with Q16E, F24L, S30N, G35A, C46T, D86N, T164A, G173A, C239G
notes: periplasmic prep
For the molecule B21, the “median [+ligand]/median [w/o ligand]*100” value was at least 75%.

B22: FL-33 scFv (scFv)
scFv: QVTLKESGPVLVKPTETLTLTCTVSGFSLRNARMGVSWIRQPPGKTLEWLAHIFSNDEKSYSTSLKSRLTISKDTSKGQVVLTMTNMDPVDTATYYCARIVGYGSGWYGYFDYWGQGTLVTVSSGGGGSGGGGSGGGGSDIQMTQSPSSLSASVGDRVTITCRASQGIGDDLGWYQQIPGKAPKRLIYATSVLQSGVPSRFSGSGSGTEFTLTISSLQPEDFATYYCLQHNSYPLTFGGGTKLEIK
notes: periplasmic prep
On to B22, for which the “median [+ligand]/median [w/o ligand]*100” value was at least 75%.

The record behind these values is patent US20170037149A1 (Amgen, published 2017).
